In the nanobody polyreactivity screen of Harvey et al. (2022):

Test: yeast display, Sf9 membrane polyspecificity reagent, FACS + sequencing; frameworks hold sequencing errors
Outline: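 A synthetic nanobody library was expressed on Saccharomyces cerevisiae BJ5465 by galactose induction for 36–48 hours. The library was stained for 1 hour at 4 °C with 10% biotinylated, detergent-solubilized Sf9 membrane reagent and enriched with streptavidin microbeads before FACS. Low and high (top ~1%) gates were set on anti-HA fluorescence for expression and streptavidin fluorescence for reagent binding, and each polyreactivity label reflects the gate of origin.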

Sequence | polyreactivity (PSR sort gate)
QVQLVESGGGLVQAGGSLRLSCAASGRNFKPNVMGWYRQAPGKERELVAAISWSGGASTYYADSVKGRFTISRDNAKNTVYLQMNSLKREDTAVYYCNAAKRNRYDYWGQGTQVTVSS | low polyreactivity
QVQLVESGGGLVQAGGSLRLSCAASGRNFKYYTMGWYRQAPGKETELVAAISSGGRTKYADSVKGRFTISRDNAKNTVYLQMNSLKPEDTAVYYCNAGYPYPFYRSSQTGGYDYWGQGTQVTVSS | high polyreactivity
QVQLVESGGGLVQAGGSLRLSCAASGRNFNKNAMGWYRQAPGKERELVAAITDRGGSTNYADSVKGRFTISRDNAKNTVYLQMNSLKPEDTAVYYCNTGRKLVYRYPGYDYWGQGTQVTVSS | low polyreactivity
QVQLVESGGGLVQAGGSLRLSCAASGRNFNVKAMGWYIQAPGKESELVAGITRGGITTYADSVKGRFTISRDNAKNSVYLQMYSLKPVDTAVYYCAAVGWGSRYDTWYYLYDYWGQGSQVTVSS | high polyreactivity
QVQLVESGGGLVQAGGSLRLSCAASGRNFPSYAMGWYRQAPGKERELVAAISFSGASTYYADSVKGRFTFSRDNAKNTVYLQMNSLKPEDTAVYYCNASGVGADVQWSWEEGDYWGQGTQVTVSS | low polyreactivity
QVQLVESGGGLVQAGGSLRLSCAASGRNFPVNAMGWYRQAPGKERELVATISYSGSSTYYADSVKARFTISRDNAKNTVYLQMNSLKPEDTAVYYCNADAESFDDGYWGQGTEVTVSS | low polyreactivity
QVQLVESGGGLVQAGGSLRLSCAASGRNFPYYAMGWYRQAPGKERELVATISSSGGSTYYADSVKGRFTISRDNAKNTVYLQMNSLKPEDTAVYYCAADWYGYRQFHGYYWGQGTQVTVSS | high polyreactivity
QVQLVESGGGLVQAGGSLRLSCAASGRNFRKYTMGWYRQAPGKERELVATISNSGVSTYYADSVKGRFTISRDYAKNTVYLQMNSLKPEDTAVYYCSKEWLYYNGFFRSYYWGQGTQVNVSS | high polyreactivity
QVQLVESGGGLVQAGGSLRLSCAASGRNFRYNAMGWYRQAPGKERELVAAISSGDRTNYADSVKGRFTISRDNAKNTVYLQKKSLKPVDTAVYYCAAPTDSYYEFDYWGQGTQGTVSS | low polyreactivity
QVQLVESGGGLVQAGGSLRLSCAASGRNFSRYAMGWYRQAPGKERELVAAISRRGGSTYYADSVKGRFTISRDNAKNTVYLQMNSLKPEDTAVYFCAKYPSAYVDSDVTYDMDYWGQGTQVTVSS | low polyreactivity
QVQLVESGGGLVQAGGSLRLSCAASGRNFYFYAMGWYRQAPGKEREFVATISSTGGSTYYADSVKGRFTISRDNAKNTVYLQMNSLKPEDTAVYYCAVRGWYPGFRYDYWGQGTQVTVSS | low polyreactivity
QVQLVESGGGLVQAGGSLRLSCAASGRNFYRYGMGWYRQAPGKERELVAAITYGGGSTYADSVKGRFTISRDNAKNTVYLQMNSLKPEDTAVYYCNARSRYRHYGFDYWGQGTQVTVSS | high polyreactivity
QVQLVESGGGLVQAGGSLRLSCAASGRNLEYYAMGWYRQAPGQERELVATITSRGDTTHYADSVKGRFTISRDNAKNTVYLQMNSLKPEDTAVYYCAAAYVEYTPYRWYGDDYWGQGTQVTVSS | low polyreactivity
QVQLVESGGGLVQAGGSLRLSCAASGRSFDRNAMGLYRQAPGKERELVADITSIGTRTYYADSVKGRFTISRDNAKNSVYLQMNSLKPEDTAVYYCAADYYYSYWYWFSSSYGYWGQGTQVTVSS | high polyreactivity
QVQLVESGGGLVQAGGSLRLSCAASGRSFEVYVMGWYRQAPGKERELVAAISTGGSTYYADSVKGRFTISRDNAKNTVYLQMNSLKPEDTAVYYCAAKRTGNGYPRSGYSRYEYWGQGTQVTVSS | high polyreactivity
QVQLVESGGGLVQAGGSLRLSCAASGRSFGNYVMGWYRQAPGKERELVAAISRSGGSTYYADSVKGRFTISRDNAKNIVYLQMNSLKPEDTAVYYCNTVTTYDVEYWGQGTQVTVSS | high polyreactivity

Sequence | polyreactivity (PSR sort gate)
QVQLVESGGGLVQAGGSLRLSCAASGRSFLGYPMGWYRQAARKERELVAAISSSGTSTYYADSVKGRFTISRDNAQNTVYLQMNSLKPEETSVYYCAKYAYSYYPPAYDYWGQGTKVTVSS | high polyreactivity
QVQLVESGGGLVQAGGSLRLSCAASGRSFRDYGMGWYRQAPGKERELVAVITWGGGSTYYADSVKGRFTISRDNAKNTVYLQMNSLKPEDTAVYYCAKEYHYYYWGQGTQVTVSS | low polyreactivity
QVQLVESGGGLVQAGGSLRLSCAASGRSFSIYAMGCYRQAPGKERELVASISRGISTNYADSVKGRFTISRDNAKNTVYLQMNSLKPEDTAVYYCASDLFSNYRYWGQGTQVTVSS | high polyreactivity
QVQLVESGGGLVQAGGSLRLSCAASGRSFYFNAMGWYRQAPGKEWELVAVINSSGSTDYADSVKGRFTISRDNAKNTVYLQMNSLKPEDTAVYYCAAEVTPSGYGYWGQGTQVTVSS | low polyreactivity
QVQLVESGGGLVQAGGSLRLSCAASGRSLEHNAMGWYSQAPGKERELVAAISGSGGTTYYADSVKGRFTISRDNAKNTVYLQMNSLKPEDTAVYYCNAKLYRSFDYWGQGTQVTVSS | low polyreactivity
QVQLVESGGGLVQAGGSLRLSCAASGRTCKPYAMGWYRQAPGKEREVVAVITSNGSSTYYADSVKGRFTISRDNAKNTVYLQMNSLKPEDTAVYYCATKLTYTLTSGAYAYDYWGQGTQVTVSS | low polyreactivity
QVQLVESGGGLVQAGGSLRLSCAASGRTCKYYAMGWYRQAPGKERELVATITWSGTSTNNADSVKGRFTISRDNAKNTVYLQMNSLKPEETAVYYCAARSKRRNYDYWGQGTQVTVSS | high polyreactivity
QVQLVESGGGLVQAGGSLRLSCAASGRTFAAYAMGWYRQAPGKERELVAAITSGGGTYYADSVKGRFTISRDNAKNTVYLQMNSLKPEDTAVYYCAADYISVYGYEYYYWGQGTQVTVSS | high polyreactivity
QVQLVESGGGLVQAGGSLRLSCAASGRTFAFNTMGWYRQAPGKERELVDAIRFSAGSTYYADSVKGRFTISRDNAKNTVYLQMNSLKPEDTAVYYCAASYGDRGGWGPGVDYWGQGTQVTVSS | low polyreactivity
QVQLVESGGGLVQAGGSLRLSCAASGRTFAFYTLGWYRQAPGKERELVAAITRNGSTSYADSVKGRFTISRDNAKNTVFLQMNRLKPEDTAVYYCATVGYPYTLWHQMDYWGQGTQVTVSS | low polyreactivity
QVQLVESGGGLVQAGGSLRLSCAASGRTFAFYTMGWYRQAPGKEREFVAASSWSGGSTHYADSVKGRFTISRDNEKNTVYLQMNSLTQEYTAVYYCAAGPFYRFTDGRDKTLDYWGQGNQVTVSS | high polyreactivity
QVQLVESGGGLVQAGGSLRLSCAASGRTFAGNAMGWYRQAPGKERELVAAISQGGGSTYYADSVKGRFTFSRDNATNSVYLQMNRLNPDDTAVYYCAAEIPRRWASFATLWYDYWGQGTQVTVSS | low polyreactivity
QVQLVESGGGLVQAGGSLRLSCAASGRTFAGNAMGWYRQAPGKERELVASISSSAGRTYYADSVKGRFTISRDNAKNTVYLQMNSLKPEDTAVDYCAARGGYVSTWTRFSKYNYWGQGTQVTVSS | high polyreactivity
QVQLVESGGGLVQAGGSLRLSCAASGRTFAGNAMGWYRQAPGKERELVATITSRGTITYYADSVKGRFTISRDNAKNTVYLQMHSLKPEDTAVSYCNVRYYFPRYQQPYQLNEYYYWGQGTQVTVSS | low polyreactivity
QVQLVESGGGLVQAGGSLRLSCAASGRTFAIYAMGWYRPAPGKEREFVAAISWSGGDTYYADSVKGRFTISRDNAKNTVYLQMNSLKPEDTAVYYCAARDYDYEGRDLQYELDYWGQGTQVTVSS | low polyreactivity
